Here are results for 12 sequences from a protein production outcome set (Wang et al. 2014).
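Also: failed if final PepcDB status was selected cloned or expressed and not failed if soluble or beyond.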

The nature of this series: label from the status in PepcDB records.
Regarding “MAKSVNALINEAIEAGKKRDYKTSILILENLAAEGLAEVSSPFYGEKKGNPEIYLYLSRAWAAVNNYGRSIAYGKAYIKRCSSDPSANSTDLPMGFFFLGRSYLAAGQYDRAVYCLEKSLKLNPHPLETRAMLGSAYLKWKKPRLARETFEEALKFAPSDAKLNAGYLNSLFVEGIYELRNGNADMARQMFSFAIKNGIDGVAPRLYLAHALKMEGYLPEALGQYEAACEFEPDDPALKWYPAMIKMQLGDTTAAAEDFAKLGIEIPDDGVSDRFFAMGVIKKHMERGDYSRAAVAARIFIKTFGSDAEIRLLAAEAQRSMGNTNTALGHYKCALEHEPENPYPHYGIMLALQEAYRWEELSAEILRAEASGVCDADDIYYYKIITAAHIDNPPEEVLPHLQALIQNGRSDSAIFNAMGCCYIKLNMPDLALNWYERALSINEKDEEAKIGIIASYENLQLNKEADEAYNSYLNEWGKNIYIRRDYVLFLEKCERWEDAGNQLEILMSQGKKVNFDPELALFRRKAGQYQKAAILYRKMLRAKPEERLLLHNLVFCLDKMGQTKVSLDLLKAAEKMFGIKTDSMLIKGILQMRLKKKEDAIKTFQYILEKEPKNKHAAEFLEKAYGK”, the protein production result is given as “failed”.
As for “MLLDKIQNLIIQSDISIFQSMKKMDEEKVKLLFVFRGDCFVGILTIGDIQRAIIKQNDTSMQINNILDQNKVFAYKGESLEIIKNKMIHLRAECMPILDSKGELVDVLFWKDLFIDEVRVDDRKIDLPVVIMAGGKGTRLKPLTNVIPKPLIPIGDKTILEAILDQFESIGCSKFYMSVNYKYDILKFYLAQLDHKYDIRFFKEDKPLGTIGSVSLLKDKISTPFFVSNCDIIIDQDYRDVYDYHINNSNDLTIVTAVKRTRIPYGVIETIENGLMTELIEKPEFTYMINSGVYILQPELINEIPENELFHITHLMEKVKSRGGKIGCFPVSEKSWTDIGEWNEYLKLLGILEHHHHHH”, the protein production result is recorded as “failed”.
As for “MKKPFFGFMFIALFSASLFCNPADLYQKGAEYQANEDWYGAIEMYQSALKENPSYNLVYQGLAECFYALDEYDQALSFVESARKYKKDDPDLQNLHGFILVGLGKIDAAKTLFNGVLKKYPNNPEARFGLAEIEVSQGKLYLASEMYKQNLQRQGENRKDLLSLALVSYEAGNVKQAEDYINRALKYHGDNPQVHYFAAYLHSLDGKLEEAEGRIYSALKLKEDYDEAYALLASVLYAQKRYEEVIKISDMRISKKRDRADAWYLKTLSLRQLARYGEAINAAKVGLSLDADDEIMRCLLEELAIENLNFEDSFRMELSKYHAQKALGFFRRNMTEQALYEYRRTLKIYPYDVESREAYAGILLRLGYPERYLEQMLFIQSIVKSNTKVNDAVEAYEKHLLSSIQSKWRIDPLYLDKAHISIGLFYTMESSNVLHPEAERITQILTSDIFSYNPRIKITSYSDKPVTYREASKKSRTANEDYFGIIRLKENRRDIQIILELYVSRTGSPAKTFTVYRSGNDRFSNGIRRLSSMLNEAMPIVGKLINRYQNEAVIDIGKHDSDFKDLKIAVIRKDRLVIEKEGLGMVFDPSDLLGYFEPSKSEENLSEGILKRNGYYDRMNAGDSIILVSENAKEKAAEDYTNSYQKNSLLLLLLRRIR”, the protein production result is on record as “failed”.
Take “MLVSCAMRLHSGVFPDYAEKLPQEEKMEKEDSFPQRVWQIVAAIPEGYVTTYGDVAKLAGSPRAARQVGGVLKRLPEGSTLPWHRVVNRHGTISLTGPDLQRQRQALLAEGVMVSGSGQIDLQRYRWNY”: the protein production entry was “failed”.
For the sequence “MLWRPVGHGVEALYLATPLGRRVGYGVYVYRYRGLLVDTGPPKARPFAPEAALLTHAHEDHAGGAFRLGLPVYGSALTAALVAAPKPLRLYRRLVWGSPRPAQVEVAERVGPLHLLPTPGHAPDHVALYDPEAGLFFGGDLFLGVRASLATPGFDLQALLQSLRRALALKPRAFYCAHAGPLQAPLEALQAKLDFLEGKREEALRLKARGLTPKEALRRLFGGESPLALLSGGEMSRLAFVEALMMEP”, the protein production result was “failed”.
Turning to “MEDDCEELQVPVGTLTSIGFSISNNNDRDKMSVLEVEAPNQVTDSRLGLPNPDSVCRTCGSKDRKVCEGHFGVINFAYSIINPYFLKEVAALLNKICPGCKYIRKKQFQITEDQPERCRYCTLNTGYPLMKFRVTTKEVFRRSGIVVEVNEESLMKLKKRGVLTLPPDYWSFLPQDSNIDESCLKPTRRIITHAQVYALLLGIDQRLIKKDIPMFNSLGLTSFPVTPNGYRVTEIVHQFNGARLIFDERTRIYKKLVGFEGNTLELSSRVMECMQYSRLFSETVSSSKDSANPYQKKSDTPKLCGLRFMKDVLLGKRSDHTFRTVVVGDPSLKLNEIGIPESIAKRLQVSEHLNQCNKERLVTSFVPTLLDNKEMHVRRGDRLVAIQVNDLQTGDKIFRSLMDGDTVLMNRPPSIHQHSLIAMTVRILPTTSVVSLNPICCLPFRGDFDGDCLHGYVPQSIQAKVELDELVALDKQLINRQNGRNLLSLGQDSLTAAYLVNVEKNCYLNRAQMQQLQMYCPFQLPPPAIIKASPSSTEPQWTGMQLFGMLFPPGFDYTYPLNNVVVSNGELLSFSEGSAWLRDGEGNFIERLLKHDKGKVLDIIYSAQEMLSQWLLMRGLSVSLADLYLSSDLQSRKNLTEEISYGLREAEQVCNKQQLMVESWRDFLAVNGEDKEEDSVSDLARFCYERQKSATLSELAVSAFKDAYRDVQALAYRYGDQSNSFLIMSKAGSKGNIGKLVQHSMCIGLQNSAVSLSFGFPRELTCAAWNDPNSPLRGAKGKDSTTTESYVPYGVIENSFLTGLNPLESFVHSVTSRDSSFSGNADLPGTLSRRLMFFMRDIYAAYDGTVRNSFGNQLVQFTYETDGPVEDITGEALGSLSACALSEAAYSALDQPISLLETSPLLNLKNVLECGSKKGQREQTMSLYLSEYLSKKKHGFEYGSLEIKNHLEKLSFSEIVSTSMIIFSPSSNTKVPLSPWVCHFHISEKVLKRKQLSAESVVSSLNEQYKSRNRELKLDIVDLDIQNTNHCSSDDQAMKDDNVCITVTVVEASKHSVLELDAIRLVLIPFLLDSPVKGDQGIKKVNILWTDRPKAPKRNGNHLAGELYLKVTMYGDRGKRNCWTALLETCLPIMDMIDWGRSHPDNIRQCCSVYGIDAGRSIFVANLESAVSDTGKEILREHLLLVADSLSVTGEFVALNAKGWSKQRQVESTPAPFTQACFSSPSQCFLKAAKEGVRDDLQGSIDALAWGKVPGFGTGDQFEIIISPKVHGFTTPVDVYDLLSSTKTMRRTNSAPKSDKATVQPFGLLHSAFLKDIKVLDGKGIPMSLLRTIFTWKNIELLSQSLKRILHSYEINELLNERDEGLVKMVLQLHPNSVEKIGPGVKGIRVAKSKHGDSCCFEVVRIDGTFEDFSYHKCVLGATKIIAPKKMNFYKSKYLKNGTLESGGFSENP”, the protein production entry is recorded as “failed”.
Next, “MDKVILITGASGGIGEGIARELGRRCENIVGCTPPGPYRGHCHGDSTQEVPPWRRCWTPTVTPWQPLQAAVDTWGRIDVLVNNAGVMPLSACRSGGRVGAHDRREHQGRALGSGPYCQSWRHSVAGRSSISARSALSVVPTAAVYCATKFAVRAISDTAPGEYQYPRHLRQSRRRRKRTCEPSPTRRPWRRWTPIAPSRFSLDIARAVRQVIEAPQSVDTTEITITDRIGQL”: “not failed”.
Turning to “MAHELSAGSVFAGYRIERMLGAGGMGTVYLARNPDLPRSEALKVLAAELSRDLDFRARFVREADVAAGLDHPNIVAVHQRGQFEGRLWIAMQFVDGGNAEDALRAATMTTARAVYVIGEVAKALDYAHQQGVIHRDIKPANFLLSRAAGGDERVLLSDFGIARALGDTGLTSTGSVLATLAYAAPEVLAGQGFDGRADLYSLGCALFRLLTGEAPFAAGAGAAVAVVAGHLHQPPPTVSDRVPGLSAAMDAVIATAMAKDPMRRFTSAGEFAHAAAAALYGGATDGWVPPSPAPHVISQGAVPGSPWWQHPVGSVTALATPPGHGWPPGLPPLPRRPRRYRRGVAAVAAVMVVAAAAVTAVTMTSHQPRTATPPSAAALSPTSSSTTPPQPPIVTRSRLPGLLPPLDDVKNFVGIQNLVAHEPMLQPQTPNGSINPAECWPAVGGGVPSAYDLGTVIGFYGLTIDEPPTGTAPNQVGQLIVAFRDAATAQRHLADLASIWRRCGGRTVTLFRSEWRRPVELSTSVPEVVDGITTMVLTAQGPVLRVREDHAIAAKNNVLVDVDIMTPDTSRGQQAVIGITNYILAKIPG”, the protein production result is “failed”.
For “NDVFSDEVKKIDDNTFIVEGRMPLDDFNKMFHVELPARGVDTVAGFVLTLTGTIPEEDDKVVVEYDTLRFTVEEMNDARLVSVRVEKDI”, the protein production result was “failed”.
Next, “MRDHPADRLQSITVTAFYQEPNVPTHSLSDYTSWIERTWQGQVSFTELVTYAETLNSHPALCAALYRTWLQRNTGVFNSVAWFNLGVILFAENNLIDSIEAFQKALALSPAFPQARINLGLALERQGNAEAAIEQWQAVVENAITPEADQNTGPNQADQIKNLTMALNNIGRLQETRRQYQAATQALEKSLQLDPDQPDAIHHLIFQRQKQCQWPVYAPVGKVTEAVLHEHTSALAMLNISDAPEAQLTAALNYSRRKIPADLPRLSPANGYRHDKIRVAYCSSDFCTHPVAMLTVELFEHHDKNRFETYAFCWSPDDGSTLRQRILSAVDHYIPVHGKSDDEVAQLIRQHEIDILIDLQGQTSGAKTRMLAMRPAPMQITYLGLPATTGLPGIDYVIADRYLIPEEYARFYSEKPLYMPDVYQVSDRKREHSPAPTRKDCGLPARKFVFCSFNNNHKYTLEVFTTWMNILRRVPNSVLWLLADNPWARENLQKQAKAQGIDPKRLVFAERTMPADYLARYLVADLFLDTFPFNAGTTANDALWMGLPVLTMSGRSFASRMAGALLTAADLPELITHDLQTYEDKAVALAADAKARKTMRQKLALAKESGPLFDSLRFTRNLEQQYIALVSELQNPSQHINISAQPEPTKLGEPAQPNPIIATVQEAEALQARGDTQGAIQLYRQWLEHAHSGDEWIAQFNLGVLLRDGGDITGAQQAFQAVLKQKPDFVQARAALGKLPAPVTTESQKHGAIIGPLQTNSPISTKSKEQITQIFSETPKIKLLVEGWRGINHSFALVNQYHLYEWMRSSQLHIYHRDMPLLFSHWETNKNRGNTGLPGTYSQRLAQVQHWSGQTYDACFRIYSPVTLAPDDKHPVSTFLVTELGLDETQIAHFRPNLKAYFNMGGNIVTPSHWSKERIIEAGIPAEHIHLISHGVASNIFHPMHSDERAIHRQRLGFDREAVIFLNVAAPIWNKGLDLLIQAFVQCFHQNPHTRLLIKDQQAVYGISTKDTVLREITLLGESKNESLLNAIRVIPDLNLLQLRELYCIADYYVSPYRAEGFNLPVIEALVCGTPVIVTEGGATQDFCSEKNALFIEAVPYRNVKINDRHVNAYQAPILDSLITHLNVCAQDKPFSESQRLQNAASIAKNFTWAKAADTISRLFTQSNDCNTSTSQITGALHEEPQYCN”: “failed”; “MEKKKPFSVLLMGSDARPGETNGRADTIILATANKQQNAVEMVSIPRDTKVDYGNGDIGKINASYSNGGPSGTVSAVEKLMPGVPVDYFISINMEGFKDLVDAVGGITVYNDIDLTEVNSKFVKGNITLNGTDALQYVRIRHEDPRGDFGRQDRQRDVIIGIANKVISSSGVSNFESIMKAVGDNFQTNMTLTDITSMATNYSSVLKNVDSQELKGEGEMIYSESYGFDLYYFAPDETDLERVINMFKKSLDITELEHHHHHH”: “not failed”; “MQGFLRSLFFGVKKIPKPFAPLVEKGVLKEALELKKDRYFLKEGFDIGKVEKVKDKAFFISLAKNYPKDPLIKNLPPSFKTDALILCQIECSKKRPIAFFKAALLNADHTMIAYLAKKNNQIVAIPFKEPFKKPVSLKHSQKSLLELPRHCVVKIDTKKREISEILGALEDPLIDENLSLSLFDRVKDFSKDCLNLAQHYAQLKASDFKDRINYSHIPFITIDPKDAKDFDDAIFYDQEKRVLFVAVADVSEFVPKHSSLDKEARVRGFSVYFPNSVYPMLPLSLSQGACSLKAFEKRLALVYEIPLDNLKNARLSQGVIEVRANCTYEEINHFLSANQSSLDKDLQQSLLGFLEMALKLKKERLKKGFNFNSFENKLYLNKEGRIEKIETEKESDAHTLIEEAMLLANQSSARLLDEHFHNKGIYRTHKEPSLEQQKRLYDKLFDYEIVRPKNMGFFPFLEHALKIAKEKSIEREVSRLIIKSQNLALYSPLQESHFGLGFASYTHFTSPIRRYSDLALHRLLKELLFYQAKGCSYLLEETPELCAELNALQKKAALIERDFIKRKFARLALELLEKEFLGVVLEVKDWVVVGLKEFIGLKVLVKTNKVFKPLEKVRVTITHADLILGQVRGEITERIKEHVS”: “failed”.
